# Source: patent US20090068174A1, “THERAPEUTIC ALKALINE PROTEASE COMPOSITIONS AND USE IN FACILITATING THE TRANSPORT OF AGENTS ACROSS THE GASTROINTESTINAL MUCOSAL LINING” (Kansas University Medical Center Research Institute, Inc., priority 2007, published 2009)
# T1: TNF-α (Mus musculus, UniProt P06804)
# T1 sequence (P06804 80-235 limits assumed): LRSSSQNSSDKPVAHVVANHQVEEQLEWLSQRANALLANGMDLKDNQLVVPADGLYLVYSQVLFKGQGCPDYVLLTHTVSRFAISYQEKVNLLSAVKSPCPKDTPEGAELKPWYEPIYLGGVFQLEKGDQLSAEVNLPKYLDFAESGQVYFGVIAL
# T2: human IFN-γ (Homo sapiens, UniProt P01579)
# T2 sequence (P01579 24-166): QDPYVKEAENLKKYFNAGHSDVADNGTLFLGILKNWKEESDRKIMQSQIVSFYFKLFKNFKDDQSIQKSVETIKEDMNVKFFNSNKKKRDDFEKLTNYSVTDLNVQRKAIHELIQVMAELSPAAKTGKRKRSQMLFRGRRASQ
# Assays:
# [1] = target: T1, TNF-α; experiment: Pretreatment of mice with protease before TNF-α challenge, activated caspase-3 in intestine; type: in vivo
# Method: In this figure, various amounts of deutrolysin and alkaline protease were administered to mice 15 min prior to challenge with TNF-α. Intestinal tissues were again recovered 1 h later and the expression of activated caspase-3 was measured. […] (B) The ability of AP to provide protection against the apoptotic effects of TNF-α in vivo was limited in its duration. Thus, pretreatment of the mice for up to 30 min prior to TNF-α challenge prevented caspase-3 activation, whereas delaying cytokine challenge beyond 30 min diminished the protective effect of the protease.
# A modification of this experiment was then performed by injecting various amounts of the proteases for 15 min prior to challenge with TNF-α (FIG. 22). Intestinal tissues were again recovered 1 h later and the expression of activated caspase-3 was measured. […]
# (§1) Mice were injected i.p. with 5 ng of recombinant mouse TNF-α or protease-treated TNF-α, and 2 cm segments of their duodenums were collected 1 h later. […] The sections were first treated with rabbit antibody to activated (cleaved) mouse caspase-3, and bound antibody was detected using a Histostain-SP kit. For each mouse, tissues were scored by enumerating the number of sections in which less than 10%, 10-50%, or >50% of the intestinal villi expressed activated caspase-3. At least 48 sections were analyzed in this fashion from each mouse.
# [2] = target: T2, human IFN-γ; experiment: Fc receptor-inducing activity of protease-treated human IFN-γ on U937 cells; type: cell-based; parameters: key: +: Indicates that the protease inactivated the cytokine; ^a: Cleavage of the cytokine occurred without inactivation; settings: Table 7 summary
# Method: (§2) Effects of the purified A. oryzae proteases on the Fc receptor-inducing activity of human IFN-γ. Samples of the cytokine were first treated with the indicated Pseudomonas or fungal proteases: Elastase (∘); Preparation ([…]); Alkaline Protease (□); Deuterolysin (▪); and 26 kDa Protease (Δ). The treated samples were added to human promyelocytic U937 cells to induce expression of Fc receptors for IgG, which was detected by flow cytometry. The results are plotted either as a decrease in of mean channel fluorescence (A) or a decrease in % positive cells (B) plotted against increasing protease amounts.
# as §2, with “Samples” for “Effects of the purified A. oryzae proteases on the Fc receptor-inducing activity of human IFN-γ. Samples”
# [3] = Table 1; cited from earlier work
# [4] = target: T1, TNF-α; experiment: Protease-treated TNF-α injected i.p. into mice, activated caspase-3 in intestine; type: in vivo; settings: TNF-α treated with protease for 2 h, intestine 1 h later
# Method: TNF-α was first treated either with PBS, AP or D for 2 h, the reaction mixtures were inactivated by the addition of FBS, and the cytokine-protease mixtures were injected i.p. into mice. (A) One hour later the mice were euthanized, samples of their intestines were collected and fixed, and tissue sections were analyzed by immunohistology for the expression of activated caspase-3. These are the results are shown in which data are expressed in two forms: (B) the frequency distributions of sections expressing different levels of activated caspase-3; and (C) the percentages of tissue sections in which 10% or more of the villi stained for activated caspase-3.
# A series of experiments was performed in which the activation of caspase-3 within the intestine was measured. […] One hour later the mice were euthanized, samples of their intestines were collected and fixed, and tissue sections were analyzed by immunohistology for the expression of activated caspase-3 (FIG. 21-22). […]
# as §1, with “For each mouse, tissues were scored by enumerating the number of sections in which less than 10%, 10-50%, or >50% of the intestinal villi expressed activated caspase-3.” left out
# [5] = system: spontaneous colitis; experiment: Spontaneous colitis in C3H/HeJBir mice; type: in vivo, mouse; settings: weeks 6-10 of life
# Text: This particular mouse strain develops a transmural Th1-, cytokine-dependent colitis similar to CD that begins at 3-6 wk of life and gradually wanes until it resolves at 3 months of age. T cells and Th1 cytokines (IL-112, IFN-γ and TNF-α) mediate the disease which is maintained by an ongoing reaction to microbial flora antigens.
# C3H/HeJBir mice can be obtained at 5-6 wk of age from Jackson Labs. Mice can be divided into three groups, for example: Group 1 should receive no further treatment and may simply be monitored for clinical signs, including daily measurements of body weight and endpoint pathology. Group 2 should be administered alkaline protease in their drinking water at a dose of 10-25 mg/kg/week for one week. Group 3 should be administered alkaline protease in their drinking water (dose determined above) for two weeks. After 1 week (Group 2 and half of Group 1) or 2 weeks (Group 3 and half of Group 1), animals can be sacrificed and body weight changes and histopathological scores of inflammation and tissue damage (leukocyte infiltration, ulceration, abscesses and fibrosis), activated caspase-3 expression and TNF-α expression can be measured by methods known in the art.
molecule,measurement,setting,value
"Alkaline Protease: Aspergillus oryzae alkaline protease (oryzin), SEQ ID NO: 2, purified from the protease powder of Example 1 (protein, listed as Aspergillus oryzae) MQSIKRTLLLLGAILPAVLGAPVQETRRAAEKLPGKYIVTFKPGIDEAKIQEHTTWATNIHQRSLERRGATGGDLPVGIERNYKINKFAAYAGSFDDATIEEIRKNEDVAYVEEDQIYYLDGLTTQKSAPWGLGSISHKGQQSTDYIYDTSAGEGTYAYVVDSGVNVDHEEFEGRASKAYNAAGGQHVDSIGHGTHVSGTIAGKTYGIAKKASILSVKVFQGESSSTSVILDGFNWAANDIVSKKRTSKAAINMSLGGGYSKAFNDAVENAFEQGVLSVVAAGNENSDAGQTSPASAPDAITVAAIQKSNNRASFSNFGKVVDVFAPGQDILSAWIGSSSATNTISGTSMATPHIVGLSLYLAALENLDGPAAVTKRIKELATKDWKDVKGSPNLLAYNGNA",Pretreatment interval prior to TNF-α challenge that prevented caspase-3 activation,[1],up to 30 min
same,Effect of protease pretreatment on action of TNF-α in vivo (activated caspase-3),"[1]; protease 1-10 μg injected 15 min prior to TNF-α challenge, tissues 1 h later",blocked the action of TNF-α in vivo
same,Inactivation of Human IFN-γ,[2],+
same,Heat stability (stable at),[3],37 °C for 3 h
same,pI,[3],6.53
same,Ability of protease-treated TNF-α to activate caspase-3 in intestinal epithelial cells,[4],destroyed the ability of the cytokine to activate caspase-3
same,Weight loss and pathological lesions,[5],can correct the weight loss and the pathological lesions
